Data as given in patent publication US7867500B2, “Cofactor that modulates steroid receptor activities” (The United States of America as represented by the …, priority 2004, dated 2011).

Target: T1, androgen receptors (ARs) (Homo sapiens, UniProt P10275)
T1 construct: plus VP16 fused to the indicated full length receptors; expressed in transfected cells; host or cells: CV-1
T1 sequence (P10275 1-920): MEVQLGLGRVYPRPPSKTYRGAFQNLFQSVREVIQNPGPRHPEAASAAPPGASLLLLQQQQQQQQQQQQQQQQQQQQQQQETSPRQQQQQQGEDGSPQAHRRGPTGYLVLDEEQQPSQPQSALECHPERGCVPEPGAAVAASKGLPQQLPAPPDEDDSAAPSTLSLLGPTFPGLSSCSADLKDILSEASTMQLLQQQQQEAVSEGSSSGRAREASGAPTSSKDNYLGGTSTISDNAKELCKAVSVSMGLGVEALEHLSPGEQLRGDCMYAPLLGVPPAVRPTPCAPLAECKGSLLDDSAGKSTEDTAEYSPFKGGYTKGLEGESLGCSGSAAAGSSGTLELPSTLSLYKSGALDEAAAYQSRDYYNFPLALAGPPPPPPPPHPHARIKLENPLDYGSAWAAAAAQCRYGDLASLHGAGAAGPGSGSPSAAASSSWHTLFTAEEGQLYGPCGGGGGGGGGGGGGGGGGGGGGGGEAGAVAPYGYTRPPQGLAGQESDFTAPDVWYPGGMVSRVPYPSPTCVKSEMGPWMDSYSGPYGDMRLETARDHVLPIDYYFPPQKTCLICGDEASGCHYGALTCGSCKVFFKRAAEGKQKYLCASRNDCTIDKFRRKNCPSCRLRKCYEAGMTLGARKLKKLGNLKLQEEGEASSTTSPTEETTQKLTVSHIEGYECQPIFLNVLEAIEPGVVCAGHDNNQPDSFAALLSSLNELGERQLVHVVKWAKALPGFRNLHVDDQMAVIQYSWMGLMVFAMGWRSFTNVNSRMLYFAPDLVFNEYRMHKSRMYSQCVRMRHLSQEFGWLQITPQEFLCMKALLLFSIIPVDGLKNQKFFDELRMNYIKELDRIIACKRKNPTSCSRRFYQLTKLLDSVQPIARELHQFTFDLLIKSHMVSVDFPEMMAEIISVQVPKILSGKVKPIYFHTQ
T1 sequence (Q6EMB2 838-1281 F1267S partner limits assumed): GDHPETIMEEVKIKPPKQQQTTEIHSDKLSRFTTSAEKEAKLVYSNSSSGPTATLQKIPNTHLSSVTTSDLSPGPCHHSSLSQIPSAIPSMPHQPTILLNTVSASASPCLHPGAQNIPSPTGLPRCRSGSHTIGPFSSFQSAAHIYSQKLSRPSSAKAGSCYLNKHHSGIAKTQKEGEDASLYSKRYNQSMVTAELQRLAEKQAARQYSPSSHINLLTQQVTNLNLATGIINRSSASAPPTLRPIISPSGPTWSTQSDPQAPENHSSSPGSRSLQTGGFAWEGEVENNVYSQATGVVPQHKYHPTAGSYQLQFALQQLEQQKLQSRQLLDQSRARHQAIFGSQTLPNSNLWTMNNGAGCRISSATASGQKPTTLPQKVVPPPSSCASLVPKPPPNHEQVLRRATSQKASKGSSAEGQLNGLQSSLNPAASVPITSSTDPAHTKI
Experiment: Mammalian two-hybrid assay with VP16 full length receptor: AR
Type: cell-based
Settings: 1 nM R1881
Description: FIG. 6C1-3 illustrate the association of STAMP with assorted steroid/nuclear receptors, including glucocorticoid receptors (GRs), progesterone receptors (PRs), androgen receptors (ARs), estrogen receptors (ER α or β), PPARγ2 receptors, thyroid receptor beta (TR), and retinoid (α) receptors (RAR α or RXR α). Triplicate samples of CV-1 cells were transfected (as described for FIG. 6B) with GAL, or GAL fused to TIF2.4 or STAMP834C, plus VP16 fused to the indicated full length receptors and incubated with the appropriate steroid (1 μM Dex, 20 nM R5020, 1 nM R1881, 0.1 μM triiodothyronine, or 1 μM estradiol, roziglitazone, or 9-cis-retinoic acid). The average relative luciferase activities of 2-3 experiments±S.E.M. were then plotted. FIG. 6C1 illustrates the effects of STAMP association upon GR, PR and AR induced expression. FIG. 6C2 illustrates the effects of STAMP association upon ERα, ERβ and PPARγ2 induced expression. FIG. 6C3 illustrates the effects of STAMP association upon TR, RARα and RXRα induced expression.
These assays were conducted as described (He et al., 2002). […]

interaction with agonist-bound, full length AR: interacted
B1: STAMP834C: STAMP fragment amino acids 834-1277, receptor interaction domain (RID) (protein)
chain: T1 sequence (Q6EMB2 838-1281 F1267S partner limits assumed)
